Molecular target: cynomolgus heparanase (cynomolgus)
Test: cross species capture ELISA, heparanase captured by rabbit anti-heparanase antibody, exhaustive supernatant 1:5, anti-human IgG Fc detection

Chain of cynomolgus heparanase (cynomolgus) (chain, as listed by the source): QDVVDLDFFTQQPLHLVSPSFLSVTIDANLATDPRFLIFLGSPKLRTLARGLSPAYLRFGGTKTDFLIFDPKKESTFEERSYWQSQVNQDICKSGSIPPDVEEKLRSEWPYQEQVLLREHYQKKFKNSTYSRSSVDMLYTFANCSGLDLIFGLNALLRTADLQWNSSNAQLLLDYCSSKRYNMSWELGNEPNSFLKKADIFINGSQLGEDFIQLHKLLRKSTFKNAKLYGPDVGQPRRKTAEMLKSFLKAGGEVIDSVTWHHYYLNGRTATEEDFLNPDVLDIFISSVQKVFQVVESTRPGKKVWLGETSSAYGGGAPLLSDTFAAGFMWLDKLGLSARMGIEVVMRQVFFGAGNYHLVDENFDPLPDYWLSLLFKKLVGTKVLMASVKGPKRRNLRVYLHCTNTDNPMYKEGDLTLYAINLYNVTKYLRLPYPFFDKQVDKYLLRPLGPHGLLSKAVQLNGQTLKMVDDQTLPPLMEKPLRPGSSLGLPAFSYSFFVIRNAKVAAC

OD, binding to heparanase (Cyno): 0.11 OD units
B1: monoclonal antibody 15A1.2 (antibody, V domains shown)
VH: QVQLVQSGAEVKKPGASVKVSCKVSGYTLTELSMHWVRQAPGKGLEWMGGFDPEDGETIFAQKFQGRVTMTEDTSTDTAYMELSSLRSEDTAVYYCATGLRFLEWFLWGWDVWGQGTTVTVSS
VL: DIQMTQSPSSVSASVGDRVTITCRASQGISNWLAWYQQTPGKAPQLLIYGASSLQSGVPSRFSGSGSGTDFTLTISSLQPEDFATYYCQQADSFPPTFGQGTKVEIK

— patent publication US20100233154A1, “TARGETED BINDING AGENTS DIRECTED TO HEPARANASE AND USES THEREOF 463” (MedImmune Limited, priority 2008, published 2010)
